According to paper PMC6039492:

Assays:
[1] = target: GABAB receptor (heterodimer of GABAB1 and GABAB2), untagged and SNAP-tagged subunits in three combinations (rat) (UniProt Q9Z0U4); experiment: two-photon scanning number and brightness (sN&B) fluctuation microscopy; live cultured rat hippocampal neurons, GABAB1 and/or GABAB2 SNAP-tagged and labelled with Alexa488, corrected for the theoretical number of fluorophores per heterodimer; across expression levels
[2] = target: mGlu2 mutated to be locked in the inactive conformation (HA-ST-mGlu2-515NGlyc-L698C-L729C-F756D), cross-linked with CuP (rat) (UniProt P31421); experiment: two-photon scanning number and brightness (sN&B) fluctuation microscopy; live cultured rat hippocampal neurons, SNAP-tag labelled with Alexa488, incubated with 150 μM CuP for the last 10 min of labelling, imaged in the absence of ligand; 90-600 subunits/Veff; apparent stoichiometry (lower with CuP)

Sequence of GABAB receptor (heterodimer of GABAB1 and GABAB2), untagged and SNAP-tagged subunits in three combinations (Q9Z0U4 20-960): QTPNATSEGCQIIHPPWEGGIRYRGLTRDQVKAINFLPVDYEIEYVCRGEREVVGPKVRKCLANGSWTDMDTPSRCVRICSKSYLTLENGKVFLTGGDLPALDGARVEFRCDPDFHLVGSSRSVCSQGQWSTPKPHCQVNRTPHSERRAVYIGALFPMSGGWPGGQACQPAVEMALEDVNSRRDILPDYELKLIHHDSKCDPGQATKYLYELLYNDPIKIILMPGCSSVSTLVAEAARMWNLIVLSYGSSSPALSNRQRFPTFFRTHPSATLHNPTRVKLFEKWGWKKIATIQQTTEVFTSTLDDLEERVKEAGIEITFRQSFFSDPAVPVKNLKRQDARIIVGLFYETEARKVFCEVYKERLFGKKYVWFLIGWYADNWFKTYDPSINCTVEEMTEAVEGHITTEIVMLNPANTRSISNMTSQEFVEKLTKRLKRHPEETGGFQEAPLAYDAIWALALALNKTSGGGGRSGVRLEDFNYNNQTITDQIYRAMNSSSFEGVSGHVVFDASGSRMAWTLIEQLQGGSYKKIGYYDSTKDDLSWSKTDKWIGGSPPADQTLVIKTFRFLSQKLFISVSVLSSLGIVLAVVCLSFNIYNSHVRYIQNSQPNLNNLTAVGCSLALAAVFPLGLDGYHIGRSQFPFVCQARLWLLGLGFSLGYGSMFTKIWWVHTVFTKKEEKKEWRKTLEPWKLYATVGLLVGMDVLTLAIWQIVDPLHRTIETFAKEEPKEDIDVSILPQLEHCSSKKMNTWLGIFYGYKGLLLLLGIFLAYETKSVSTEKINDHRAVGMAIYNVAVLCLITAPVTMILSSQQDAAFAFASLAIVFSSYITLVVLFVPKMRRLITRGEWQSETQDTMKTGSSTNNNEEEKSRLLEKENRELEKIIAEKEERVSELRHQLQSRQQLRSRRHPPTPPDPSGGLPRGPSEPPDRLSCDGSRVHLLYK
Sequence of GABAB receptor (heterodimer of GABAB1 and GABAB2), untagged and SNAP-tagged subunits in three combinations (O88871 41-940): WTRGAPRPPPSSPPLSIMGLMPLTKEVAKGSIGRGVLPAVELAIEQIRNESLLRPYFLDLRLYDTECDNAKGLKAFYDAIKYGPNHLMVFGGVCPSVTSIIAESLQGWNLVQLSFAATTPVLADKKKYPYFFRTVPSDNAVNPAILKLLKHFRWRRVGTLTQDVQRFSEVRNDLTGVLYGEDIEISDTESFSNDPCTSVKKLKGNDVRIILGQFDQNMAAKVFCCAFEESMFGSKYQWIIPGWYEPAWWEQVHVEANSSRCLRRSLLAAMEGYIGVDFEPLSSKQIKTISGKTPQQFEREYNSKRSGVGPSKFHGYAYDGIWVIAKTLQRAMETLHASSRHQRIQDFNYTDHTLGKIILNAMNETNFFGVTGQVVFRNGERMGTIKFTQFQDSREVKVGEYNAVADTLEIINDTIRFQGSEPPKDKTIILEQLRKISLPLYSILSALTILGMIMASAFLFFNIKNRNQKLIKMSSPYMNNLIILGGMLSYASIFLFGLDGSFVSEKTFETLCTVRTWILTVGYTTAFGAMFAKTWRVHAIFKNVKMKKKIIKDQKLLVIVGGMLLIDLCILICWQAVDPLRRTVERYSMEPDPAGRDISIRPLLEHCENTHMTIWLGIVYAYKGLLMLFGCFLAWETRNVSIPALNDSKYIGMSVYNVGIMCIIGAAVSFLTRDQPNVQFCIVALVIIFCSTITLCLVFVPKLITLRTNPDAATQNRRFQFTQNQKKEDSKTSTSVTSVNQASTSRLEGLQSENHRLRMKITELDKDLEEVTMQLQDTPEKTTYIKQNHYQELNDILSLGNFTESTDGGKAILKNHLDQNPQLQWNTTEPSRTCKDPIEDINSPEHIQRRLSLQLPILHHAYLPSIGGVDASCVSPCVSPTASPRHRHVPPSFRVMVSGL

GABAB receptor (heterodimer of GABAB1 and GABAB2), untagged and SNAP-tagged subunits in three combinations (from UniProt Q9Z0U4 20-960; O88871 41-940) (complex)
stoichiometry N (per diffusing complex) [1]: 2 to 8

mGlu2 mutated to be locked in the inactive conformation (HA-ST-mGlu2-515NGlyc-L698C-L729C-F756D), cross-linked with CuP (from UniProt P31421 19-872) (receptor)
stoichiometry N (subunits/complex) [2]: 2.3
